Experimental data reported in patent US11833164B2, “Methods of treating Fabry disease in patients having a mutation in the GLA gene” (Amicus Therapeutics, Inc., priority 2019, dated 2023).

B1: D161H (protein)
chain: MQLRNPELHLGCALALRFLALVSWDIPGARALDNGLARTPTMGWLHWERFMCNLDCQEEPDSCISEKLFMEMAELMVSEGWKDAGYEYLCIDDCWMAPQRDSEGRLQADPQRFPHGIRQLANYVHSKGLKLGIYADVGNKTCAGFPGSFGYYDIDAQTFAHWGVDLLKFDGCYCDSLENLADGYKHMSLALNRTGRSIVYSCEWPLYMWPFQKPNYTEIRQYCNHWRNFADIDDSWKSIKSILDWTSFNQERIVDVAGPGGWNDPDMLVIGNFGLSWNQQVTQMALWAIMAAPLFMSNDLRHISPQAKALLQDKDVIAINQDPLGKQGYQLRQGDNFEVWERPLSGLAWAVAMINRQEIGGPRSYTIAVASLGKGVACNPACFITQLLPVKRKLGFYEWTSRLRSHINPTGTVLLQLENTMQMSLKDLL
B2: D161N (protein)
chain: MQLRNPELHLGCALALRFLALVSWDIPGARALDNGLARTPTMGWLHWERFMCNLDCQEEPDSCISEKLFMEMAELMVSEGWKDAGYEYLCIDDCWMAPQRDSEGRLQADPQRFPHGIRQLANYVHSKGLKLGIYADVGNKTCAGFPGSFGYYDIDAQTFANWGVDLLKFDGCYCDSLENLADGYKHMSLALNRTGRSIVYSCEWPLYMWPFQKPNYTEIRQYCNHWRNFADIDDSWKSIKSILDWTSFNQERIVDVAGPGGWNDPDMLVIGNFGLSWNQQVTQMALWAIMAAPLFMSNDLRHISPQAKALLQDKDVIAINQDPLGKQGYQLRQGDNFEVWERPLSGLAWAVAMINRQEIGGPRSYTIAVASLGKGVACNPACFITQLLPVKRKLGFYEWTSRLRSHINPTGTVLLQLENTMQMSLKDLL
B3: W162S (protein)
chain: MQLRNPELHLGCALALRFLALVSWDIPGARALDNGLARTPTMGWLHWERFMCNLDCQEEPDSCISEKLFMEMAELMVSEGWKDAGYEYLCIDDCWMAPQRDSEGRLQADPQRFPHGIRQLANYVHSKGLKLGIYADVGNKTCAGFPGSFGYYDIDAQTFADSGVDLLKFDGCYCDSLENLADGYKHMSLALNRTGRSIVYSCEWPLYMWPFQKPNYTEIRQYCNHWRNFADIDDSWKSIKSILDWTSFNQERIVDVAGPGGWNDPDMLVIGNFGLSWNQQVTQMALWAIMAAPLFMSNDLRHISPQAKALLQDKDVIAINQDPLGKQGYQLRQGDNFEVWERPLSGLAWAVAMINRQEIGGPRSYTIAVASLGKGVACNPACFITQLLPVKRKLGFYEWTSRLRSHINPTGTVLLQLENTMQMSLKDLL
B4: V164I (protein)
chain: MQLRNPELHLGCALALRFLALVSWDIPGARALDNGLARTPTMGWLHWERFMCNLDCQEEPDSCISEKLFMEMAELMVSEGWKDAGYEYLCIDDCWMAPQRDSEGRLQADPQRFPHGIRQLANYVHSKGLKLGIYADVGNKTCAGFPGSFGYYDIDAQTFADWGIDLLKFDGCYCDSLENLADGYKHMSLALNRTGRSIVYSCEWPLYMWPFQKPNYTEIRQYCNHWRNFADIDDSWKSIKSILDWTSFNQERIVDVAGPGGWNDPDMLVIGNFGLSWNQQVTQMALWAIMAAPLFMSNDLRHISPQAKALLQDKDVIAINQDPLGKQGYQLRQGDNFEVWERPLSGLAWAVAMINRQEIGGPRSYTIAVASLGKGVACNPACFITQLLPVKRKLGFYEWTSRLRSHINPTGTVLLQLENTMQMSLKDLL
B5: D161Y (protein)
chain: MQLRNPELHLGCALALRFLALVSWDIPGARALDNGLARTPTMGWLHWERFMCNLDCQEEPDSCISEKLFMEMAELMVSEGWKDAGYEYLCIDDCWMAPQRDSEGRLQADPQRFPHGIRQLANYVHSKGLKLGIYADVGNKTCAGFPGSFGYYDIDAQTFAYWGVDLLKFDGCYCDSLENLADGYKHMSLALNRTGRSIVYSCEWPLYMWPFQKPNYTEIRQYCNHWRNFADIDDSWKSIKSILDWTSFNQERIVDVAGPGGWNDPDMLVIGNFGLSWNQQVTQMALWAIMAAPLFMSNDLRHISPQAKALLQDKDVIAINQDPLGKQGYQLRQGDNFEVWERPLSGLAWAVAMINRQEIGGPRSYTIAVASLGKGVACNPACFITQLLPVKRKLGFYEWTSRLRSHINPTGTVLLQLENTMQMSLKDLL
B6: V164L (protein)
chain: MQLRNPELHLGCALALRFLALVSWDIPGARALDNGLARTPTMGWLHWERFMCNLDCQEEPDSCISEKLFMEMAELMVSEGWKDAGYEYLCIDDCWMAPQRDSEGRLQADPQRFPHGIRQLANYVHSKGLKLGIYADVGNKTCAGFPGSFGYYDIDAQTFADWGLDLLKFDGCYCDSLENLADGYKHMSLALNRTGRSIVYSCEWPLYMWPFQKPNYTEIRQYCNHWRNFADIDDSWKSIKSILDWTSFNQERIVDVAGPGGWNDPDMLVIGNFGLSWNQQVTQMALWAIMAAPLFMSNDLRHISPQAKALLQDKDVIAINQDPLGKQGYQLRQGDNFEVWERPLSGLAWAVAMINRQEIGGPRSYTIAVASLGKGVACNPACFITQLLPVKRKLGFYEWTSRLRSHINPTGTVLLQLENTMQMSLKDLL
B7: V164A (protein)
chain: MQLRNPELHLGCALALRFLALVSWDIPGARALDNGLARTPTMGWLHWERFMCNLDCQEEPDSCISEKLFMEMAELMVSEGWKDAGYEYLCIDDCWMAPQRDSEGRLQADPQRFPHGIRQLANYVHSKGLKLGIYADVGNKTCAGFPGSFGYYDIDAQTFADWGADLLKFDGCYCDSLENLADGYKHMSLALNRTGRSIVYSCEWPLYMWPFQKPNYTEIRQYCNHWRNFADIDDSWKSIKSILDWTSFNQERIVDVAGPGGWNDPDMLVIGNFGLSWNQQVTQMALWAIMAAPLFMSNDLRHISPQAKALLQDKDVIAINQDPLGKQGYQLRQGDNFEVWERPLSGLAWAVAMINRQEIGGPRSYTIAVASLGKGVACNPACFITQLLPVKRKLGFYEWTSRLRSHINPTGTVLLQLENTMQMSLKDLL
B8: D161V (protein)
chain: MQLRNPELHLGCALALRFLALVSWDIPGARALDNGLARTPTMGWLHWERFMCNLDCQEEPDSCISEKLFMEMAELMVSEGWKDAGYEYLCIDDCWMAPQRDSEGRLQADPQRFPHGIRQLANYVHSKGLKLGIYADVGNKTCAGFPGSFGYYDIDAQTFAVWGVDLLKFDGCYCDSLENLADGYKHMSLALNRTGRSIVYSCEWPLYMWPFQKPNYTEIRQYCNHWRNFADIDDSWKSIKSILDWTSFNQERIVDVAGPGGWNDPDMLVIGNFGLSWNQQVTQMALWAIMAAPLFMSNDLRHISPQAKALLQDKDVIAINQDPLGKQGYQLRQGDNFEVWERPLSGLAWAVAMINRQEIGGPRSYTIAVASLGKGVACNPACFITQLLPVKRKLGFYEWTSRLRSHINPTGTVLLQLENTMQMSLKDLL

System: mutant form of α-Gal A expressed in HEK-293 cells
Experiment: HEK assay (GLP HEK / Migalastat Amenability Assay): α-Gal A activity in lysates of transiently transfected HEK-293 cells incubated with or without 10 μM migalastat
Assay type: cell-based, human
Conditions: for Absolute increase (% WT): 10 μM migalastat versus baseline; for Relative increase: 10 μM migalastat α-Gal A activity relative to baseline; for 10 μM migalastat α-Gal A activity (% WT): 5 days; for 10 μM migalastat α-Gal A activity (% WT) / Baseline α-Gal A activity (% WT): percentage of baseline wild-type α-Gal A activity; for 10 μM migalastat α-Gal A activity (% WT) / Baseline α-Gal A activity (% WT) / Baseline α-Gal A activity / 10 μM migalastat α-Gal A activity: mean ± SEM; for Baseline α-Gal A activity (% WT): absence of migalastat; for Baseline α-Gal A activity / 10 μM migalastat α-Gal A activity: lysates of HEK-293 cells transfected with the mutant form; for Baseline α-Gal A activity: incubated 5 days in the absence of migalastat; for 10 μM migalastat α-Gal A activity: incubated 5 days with 10 μM migalastat
Outline: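 Activity reported as 4-MU released (nmol/mg/hr), mean±SEM, from lysates of transiently transfected HEK-293 cells expressing mutant α-Gal A, cultured with or without 10 μM migalastat.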

| Molecule | Absolute increase (% WT) | Relative increase | 10 μM migalastat α-Gal A activity (% WT) | Baseline α-Gal A activity (% WT) | Baseline α-Gal A activity [nmol/mg/h] | 10 μM migalastat α-Gal A activity [nmol/mg/h] |
| --- | --- | --- | --- | --- | --- | --- |
| B1 | 15.5 | 1.2 | 77 ± 3.8 | 61.5 ± 2.9 | 21949 ± 2587 | 26457 ± 2512 |
| B2 | 14.1 | 1.2 | 68.7 ± 4.9 | 54.5 ± 4.3 | 19553 ± 2838 | 24298 ± 3201 |
| B3 | 9.2 | 4.6 | 11.8 ± 0.8 | 2.6 ± 0.2 | 653 ± 38 | 3019 ± 210 |
| B4 | 41.9 | 1.9 | 87.1 ± 8.2 | 45.1 ± 3.4 | 12164 ± 1271 | 23219 ± 2640 |
| B5 | 32.1 | 1.9 | 63.1 ± 4.6 | 31 ± 2.5 | 11060 ± 1571 | 21231 ± 2136 |
| B6 | 35.0 | 1.7 | 86.2 ± 5.2 | 51.2 ± 3.8 | 22055 ± 1619 | 36486 ± 1952 |
| B7 | 7.5 | 1.3 | 32 ± 2.2 | 24.5 ± 1.8 | 6491 ± 691 | 8468 ± 832 |
| B8 | 16.0 | 1.4 | 59.7 ± 2.7 | 43.7 ± 1.7 | 13728 ± 1344 | 19117 ± 2241 |
